Test results taken from publication PMC8835902, “DNA Polymerase-Parental DNA Interaction Is Essential for Helicase-Polymerase Coupling during Bacteriophage T7 DNA Replication” (International Journal of Molecular Sciences, 2022).

Experiments:
[1] = biological target: T1, WTgp5-trx complex (T7 gp5 DNA polymerase D5A, E7A with thioredoxin) (bacteriophage T7 | , UniProt P00581 1-704; P0AA25 1-109 = thioredoxin, D5A | E7A); test: native gel or EMSA; supershift: 10 nM fork DNA (2 gaps) pre-incubated with gp5-trx variants (60-100 nM) 15 min at 25 °C, then rising amounts of hexameric EQgp4, 15 min at 25 °C; 20 mM Hepes pH 7.5, 1 mM EDTA, 100 mM KCl, 0.1 mM βME, 5% glycerol, 0.10 mg/mL BSA; 4% polyacrylamide gel; fitted to the Hill equation; conditions: both partners purified
T1 construct: gp5 in pET15b, trxA in pRSFDuet; no tag is mentioned and purification was by heparin and ion exchange; also called DNA-WTgp5; source: E. coli BL21 (DE3), co-expressed, purified (Heparin HP, MonoQ)

[2] = biological target: T2, K3Dgp5-trx complex (T7 gp5 K545D, K549D, K553D with thioredoxin) (bacteriophage T7 | , UniProt P00581 1-704; P0AA25 1-109 = thioredoxin, D5A | E7A | K545D | K549D | K553D); test: as above; conditions: both partners purified
T2 construct: bacteriophage T7 gp5 DNA polymerase (D5A, E7A) with the positively charged cleft mutations K545D, K549D, K553D; Mutagenesis on the plasmid encoding WTgp5 (D5A, E7A); also called DNA-K3Dgp5; source: E. coli BL21 (DE3), co-expressed, purified (Heparin HP, MonoQ)

B1: T7 gp4 helicase-primase, active site mutant E343Q (enzyme, bacteriophage T7, UniProt P03692 1-566, looked up)
chain: MDNSHDSDSVFLYHIPCDNCGSSDGNSLFSDGHTFCYVCEKWTAGNEDTKERASKRKPSGGKPMTYNVWNFGESNGRYSALTARGISKETCQKAGYWIAKVDGVMYQVADYRDQNGNIVSQKVRDKDKNFKTTGSHKSDALFGKHLWNGGKKIVVTEGEIDMLTVMELQDCKYPVVSLGHGASAAKKTCAANYEYFDQFEQIILMFDMDEAGRKAVEEAAQVLPAGKVRVAVLPCKDANECHLNGHDREIMEQVWNAGPWIPDGVVSALSLRERIREHLSSEESVGLLFSGCTGINDKTLGARGGEVIMVTSGSGMGKSTFVRQQALQWGTAMGKKVGLAMLQESVEETAEDLIGLHNRVRLRQSDSLKREIIENGKFDQWFDELFGNDTFHLYDSFAEAETDRLLAKLAYMRSGLGCDVIILDHISIVVSASGESDERKMIDNLMTKLKGFAKSTGVVLVVICHLKNPDKGKAHEEGRPVSITDLRGSGALRQLSDTIIALERNQQGDMPNLVLVRILKCRFTGDTGIAGYMEYNKETGWLEPSSYSGEEESHSESTDWSNDTDF
notes: bacteriophage T7 gp4 helicase-primase, full-length, with E343Q; modified pET28a with histidine tags and a PreScission site; Added as 'hexameric EQgp4' in the EMSA; also called EQgp4; E343Q gp4; source: E. coli C3013I (T7 Express lysY/Iq), purified (Histrap, MonoQ)
Kd with fork DNA (gp4 on fork DNA pre-bound to gp5-trx) [1]: 8 ± 1 nM | Kd with fork DNA (gp4 on fork DNA pre-bound to gp5-trx) [2]: 6 ± 1 nM
